Results published in publication PMC5955915 (2018).

Target: BG505 SOSIP.664
Assay: BLI

B1: PGT122 Fab (Fab, V domains shown)
VH: QVHLQESGPGLVKPSETLSLTCNVSGTLVRDNYWSWIRQPLGKQPEWIGYVHDSGDTNYNPSLKSRVHLSLDKSKNLVSLRLTGVTAADSAIYYCATTKHGRRIYGVVAFKEWFTYFYMDVWGKGTSVTVSS
VL: APTFVSVAPGQTARITCGEESLGSRSVIWYQQRPGQAPSLIIYNNNDRPSGIPDRFSGSPGSTFGTTATLTITSVEAGDEADYYCHIWDSRRPTNWVFGEGTTLIVL
Binder B1 has a Kd of 34.8 nM and a koff of 0.00085 s⁻¹.
